{"source": "patent US20230165982A1", "about": "(HOBER BIOTECH, published 2023)", "binders": {"B1": {"name": "99mTc-ADAPT6 (designed binder)", "chain": "GSSHHHHHHDEAVDANSLAAAKETALYHLDRLGVADAYKDLIDKAKTVEGVKARYFEILHALP", "modifications": "also: 99mTc(CO)3 chelated by the His6 subsequence (residues 4-9)"}}, "biological_target": "Human epidermal growth factor receptor 2 (HER2) (human, UniProt P04626 23-1255)", "assay": "cell-based or functional assay", "data": [{"binder": "B1", "values": [{"measurement": "tumor-to-contralateral breast ratio (SPECT), 2 h after injection of 250 µg", "value": 7.8}, {"measurement": "tumor-to-contralateral breast ratio (SPECT), patient 17 (tumor later found FISH-negative), 2 h after injection of 1000 µg", "value": 1.33}]}]}
